Assay results: patent US20120058118A1 (Boehringer Ingelheim, published 2012)

Experiments:
[1] = target: T1, human A-beta(1-40) peptide, monomeric (BAM) (human, biotin at the C-terminus in capture ELISA, SPR and TR-FRET; not biotinylated where coated directly (Example 7)); assay: BAM ELISA
T1 construct: synthetic peptide (Anaspec), TFA/HFIP treated to give monomer; also called monomeric A-beta

[2] = target: T2, aggregated A-beta(1-40) peptide (BAA) (human); assay: BAA ELISA
T2 construct: also called A-beta peptide aggregates

[3] = target: T1, human A-beta(1-40) peptide, monomeric …; assay: TR-FRET competition, labelled ABII42D4
[4] = target: T1, human A-beta(1-40) peptide, monomeric …; assay: TR-FRET competition, mean IC50
[5] = target: T1, human A-beta(1-40) peptide, monomeric …; assay: TR-FRET competition; labelled competitor not given
[6] = target: T1, human A-beta(1-40) peptide, monomeric …; assay: ABII050 TR-FRET competition assay

IC50 [3] [nM]	IC50 [4] [nM]	IC50 [5] [nM]	Binder	further results
–	–	–	reference VHH 11G (VHH, from WO2007/35092) VHH: QVQLQESGGGLVQPGGSLRLSCAASGSIFSINTMAWYRQAPGKERDLVAAIISSGSTNYADSVKGRFTISRDNTKNTVYLQMNSLKLEDTAVYYCNAAIRRSVIDAWGAYWGQGTQVTVSS	binding result [1]: no binding; binding result [2]: no binding
4.7	–	–	ABII111B5_E109W (VHH, targeted mutant) VHH: EVQLVESGGGLVLAGGSLRLSCVHSGPTFRTDTMGWFRQAPGKEREFVAAVTWNSGRINYADSVKGRFTVSRDNTRNAAYLQMSGLKDEDTAVYYCTAHRFVVGGNMVWDWRYWGQGTQVTVSS	–
8.8	–	–	ABII111E5cl1 (VHH, c-myc and (His)6 tags) VHH: EVQLVESGGGLVLAGGSLRLSCVHSGPTFLTDTMGWFRQAPGKEREFVAAVTWNSGRINYADSVKGRFTVSRDNTRNAAYLQMSGLKDEDTAVYYCTAHRFVVGGREVQDWRYWGQGTQVTVSS	–
5	–	–	ABII111B5_R30W (VHH, targeted mutant) VHH: EVQLVESGGGLVLAGGSLRLSCVHSGPTFWTDTMGWFRQAPGKEREFVAAVTWNSGRINYADSVKGRFTVSRDNTRNAAYLQMSGLKDEDTAVYYCTAHRFVVGGNMVEDWRYWGQGTQVTVSS	–
8.6	–	–	ABIIPMP111C4 (VHH, c-myc and (His)6 tags) VHH: EVQLVESGGGLVLAGGSLRLSCVHSGPTFLTDTMGWFRQAPGKEREFVAAVTWNSGRANYADSVKGRFTVSRDNTRNAAYLQMSGLKDEDTAVYYCTAHRSVVGGVGVWDWRYWSQGTQVTVSS	–
6	–	–	ABIIPMP111C6 (VHH, c-myc and (His)6 tags) VHH: EVQLVESGGGLVLAGGSLRLSCVHSGPTFWTDTMGWFRQAPGKEREFVAAVTWNSGRLNYADSVKGRFTVSRDNTRNAAYLQMSGLKDEDTAVYYCTAHRQVVGGVQVLDWRYWGQGTQVTVSS	–
9.2	–	–	ABII111B5_N106T (VHH, targeted mutant) VHH: EVQLVESGGGLVLAGGSLRLSCVHSGPTFRTDTMGWFRQAPGKEREFVAAVTWNSGRINYADSVKGRFTVSRDNTRNAAYLQMSGLKDEDTAVYYCTAHRFVVGGTMVEDWRYWGQGTQVTVSS	–
5.1	–	–	ABIIPMP111B4 (VHH, c-myc and (His)6 tags) VHH: EVQLVESGGGLVLAGGSLRLSCVHSGPTFWTDTMGWFRQAPGKEREFVAAVTWSSGRANYADSVKGRFTVSRDNTRNAAYLQMSGLKDEDTAVYYCTAHRGVVGGWVVVDWRYWGQGTQVTVSS	–
5.3	–	–	ABII111B5_R30K (VHH, targeted mutant) VHH: EVQLVESGGGLVLAGGSLRLSCVHSGPTFKTDTMGWFRQAPGKEREFVAAVTWNSGRINYADSVKGRFTVSRDNTRNAAYLQMSGLKDEDTAVYYCTAHRFVVGGNMVEDWRYWGQGTQVTVSS	–
6.1	–	–	ABIIPMP111E4 (VHH, c-myc and (His)6 tags) VHH: EVQLVESGGGLVLAGGSLRLSCVHSGPTFSTDTMGWFRQAPGKEREFVAAVTWNSGRTNYADSVKGRFTVSRDNTRNAAYLQMSGLKDEDTAVYYCTAARLTVGSLSVGDWRYWGQGTQVTVSS	–
7.3	–	–	ABII111B5_F101W (VHH, targeted mutant) VHH: EVQLVESGGGLVLAGGSLRLSCVHSGPTFRTDTMGWFRQAPGKEREFVAAVTWNSGRINYADSVKGRFTVSRDNTRNAAYLQMSGLKDEDTAVYYCTAHRWVVGGNMVEDWRYWGQGTQVTVSS	–
10	–	–	ABII111B5_N106V (VHH, targeted mutant) VHH: EVQLVESGGGLVLAGGSLRLSCVHSGPTFRTDTMGWFRQAPGKEREFVAAVTWNSGRINYADSVKGRFTVSRDNTRNAAYLQMSGLKDEDTAVYYCTAHRFVVGGVMVEDWRYWGQGTQVTVSS	–
19	–	–	ABIIPMP111B9 (VHH, c-myc and (His)6 tags) VHH: EVQLVESGGGLVLAGGSLRLSCVHSGPTFGTDTMGWFRQAPGKEREFVAAVTWNSGRANYADSVKGRFTVSRDNTRNAAYLQMSGLKDEDTAVYYCTAHRFVVGGGCVKDWRYWGQGTQVTVSS	–
3.4	–	–	ABIIPMP111F2 (VHH, c-myc and (His)6 tags) VHH: EVQLVESGGGLVLAGGSLRLSCVHSGPTFSTDTMGWFRQAPGKEREFVAAVTWNSGRTNYADSVKGRFTVSRDNTRNAAYLQMSGLKDEDTAVYYCTANRHSVGRLSVGDWRYWGQGSQVTVSS	–
–	16	16	ABII022 (VHH, humanized variant of ABII002) VHH: EVQLLESGGGLVQPGGSLRLSCAHSGPTFRTDTMGWFRQAPGKGREFVAAVTWNSGRINYADSVKGRFTISRDNSKNAVYLQMSSLRPEDTAVYYCAAHRFVVGGNRVEDWRYWGQGTLVTVSS	–
–	3.5	3.5	ABII036 (VHH, humanized variant of ABII002) VHH: EVQLLESGGGLVQPGGSLRLSCVHSGPTFRTDTMGWFRQAPGKGREFVAAVTWNSGRINYADSVKGRFTISRDNSKNTAYLQMSSLRPEDTAVYYCAAHRFVVGGNRVEDWRYWGQGTLVTVSS	–
–	4	4	ABII033 (VHH, humanized variant of ABII002) VHH: EVQLLESGGGLVQPGGSLRLSCVHSGPTFRTDTMGWFRQAPGKGREFVAAVTWNSGRINYADSVKGRFTISRDNSKNAAYLQMSSLRPEDTAVYYCAAHRFVVGGNRVEDWRYWGQGTLVTVSS	–
–	11	11	ABII028 (VHH, humanized variant of ABII002) VHH: EVQLLESGGGLVQPGGSLRLSCVHSGPTFRTDTMGWFRQAPGKGREFVAAVTWNSGRINYADSVKGRFTISRDNSKNTVYLQMNSLRPEDTAVYYCAAHRFVVGGNRVEDWRYWGQGTLVTVSS	–
–	13	13	ABII031 (VHH, humanized variant of ABII002) VHH: EVQLLESGGGLVQPGGSLRLSCVHSGPTFRTDTMGWFRQAPGKGREFVAAVTWNSGRINYADSVKGRFTISRDNSKNAVYLQMSSLRPEDTAVYYCAAHRFVVGGNRVEDWRYWGQGTLVTVSS	–
–	5.1	5.1	ABII026 (VHH, humanized variant of ABII002) VHH: EVQLLESGGGLVQPGGSLRLSCAHSGPTFRTDTMGWFRQAPGKGREFVAAVTWNSGRINYADSVKGRFTISRDNSKNTAYLQMNSLRPEDTAVYYCAAHRFVVGGNRVEDWRYWGQGTLVTVSS	–
–	4.4	4.4	ABII027 (VHH, humanized variant of ABII002) VHH: EVQLLESGGGLVQPGGSLRLSCAHSGPTFRTDTMGWFRQAPGKGREFVAAVTWNSGRINYADSVKGRFTISRDNSKNTAYLQMSSLRPEDTAVYYCAAHRFVVGGNRVEDWRYWGQGTLVTVSS	–
–	89	89	ABII029 (VHH, humanized variant of ABII002) VHH: EVQLLESGGGLVQPGGSLRLSCVHSGPTFRTDTMGWFRQAPGKGREFVAAVTWNSGRINYADSVKGRFTISRDNSKNTLYLQMNSLRPEDTAVYYCAAHRFVVGGNRVEDWRYWGQGTLVTVSS	–
–	6	6	ABII024 (VHH, humanized variant of ABII002) VHH: EVQLLESGGGLVQPGGSLRLSCAHSGPTFRTDTMGWFRQAPGKGREFVAAVTWNSGRINYADSVKGRFTISRDNSKNAAYLQMSSLRPEDTAVYYCAAHRFVVGGNRVEDWRYWGQGTLVTVSS	–
–	5.8	5.8	ABII023 (VHH, humanized variant of ABII002) VHH: EVQLLESGGGLVQPGGSLRLSCAHSGPTFRTDTMGWFRQAPGKGREFVAAVTWNSGRINYADSVKGRFTISRDNSKNAAYLQMNSLRPEDTAVYYCAAHRFVVGGNRVEDWRYWGQGTLVTVSS	–
–	10	10	ABII034 (VHH, humanized variant of ABII002) VHH: EVQLLESGGGLVQPGGSLRLSCVHSGPTFRTDTMGWFRQAPGKGREFVAAVTWNSGRINYADSVKGRFTISRDNSKNTVYLQMSSLRPEDTAVYYCAAHRFVVGGNRVEDWRYWGQGTLVTVSS	–
–	18	18	ABII025 (VHH, humanized variant of ABII002) VHH: EVQLLESGGGLVQPGGSLRLSCAHSGPTFRTDTMGWFRQAPGKGREFVAAVTWNSGRINYADSVKGRFTISRDNSKNTVYLQMSSLRPEDTAVYYCAAHRFVVGGNRVEDWRYWGQGTLVTVSS	–
–	4.9	4.9	ABII032 (VHH, humanized variant of ABII002) VHH: EVQLLESGGGLVQPGGSLRLSCVHSGPTFRTDTMGWFRQAPGKGREFVAAVTWNSGRINYADSVKGRFTISRDNSKNAAYLQMNSLRPEDTAVYYCAAHRFVVGGNRVEDWRYWGQGTLVTVSS	–
–	12	12	ABII030 (VHH, humanized variant of ABII002) VHH: EVQLLESGGGLVQPGGSLRLSCVHSGPTFRTDTMGWFRQAPGKGREFVAAVTWNSGRINYADSVKGRFTISRDNSKNAVYLQMNSLRPEDTAVYYCAAHRFVVGGNRVEDWRYWGQGTLVTVSS	–
–	–	–	ABII315-PEG40 (designed binder, PEG40 on the Cys at position 5 of the 9GS linker, 059-9GSC-035; purified as His6-tagged construct before PEGylation) EVQLLESGGGLVQPGGSLRLSCAASGRTFNNYNMGWFRQAPGKGREFVAAVSRSGVSTYYADSVKGRFTISRDNSKNTVYLQMNSLRPEDTAVYYCAAAYRGTAINVRRSYSSWGQGTLVTVSSGGGGCGGGSEVQLLESGGGLVQPGGSLRLSCVHSGPTFRTDTMGWFRQAPGKGREFVAAVTWNSGRINYADSVKGRFTISRDNSKNTAYLQMNSLRPEDTAVYYCAAHRFVVGGNRVEDWRYWGQGTLVTVSS	IC50 [6]: 0.31 nM
